Assay results as given in patent EP4591887A1, “GPC3 ANTIBODY-DRUG CONJUGATE AND USE THEREOF” (priority 2022, dated 2024).

Assays:
[1] = target: T1, human GPC3 (Glypican-3) (human, UniProt P51654 25-580); test: FACS on Huh-7 cells
T1 construct: whole, on cells; the cell line is named under assay or readout

[2] = target: T1, human GPC3 (Glypican-3); test: cell-based or functional assay
[3] = target: T1, human GPC3 (Glypican-3); test: FACS on HepG2 cells
[4] = target: T1, human GPC3 (Glypican-3); test: cell-based or functional assay; remark: listed apart in the source
[5] = target: T1, human GPC3 (Glypican-3); test: FACS on HepG2 cells, top of the fitted fluorescence curve
[6] = target: T1, human GPC3 (Glypican-3); test: FACS on CHO-K1 cells overexpressing human GPC3 (GPC3-CHO-K1)
[7] = target: T1, human GPC3 (Glypican-3); test: FACS on HepG2 cells; remark: listed apart in the source
[8] = target: T1, human GPC3 (Glypican-3); test: cell-based or functional assay; remark: listed apart in the source

B1: Hu 52H5D3B8-8 (antibody, human IgG1, kappa, V domains shown)
VH: EVQLVQSGAEVKKPGASVKVSCKASGYTFTDYEMHWVRQAPGQGLEWMGAIHPGSGGTAYNQKFKGRVTMTADKSISTAYMELSRLRSDDTAVYYCTRFYSYAYWGQGTLVTVSS
VL: DVVMTQTPLSLSVTPGQPASISCRSSQSLVHSNGNTYLQWYLQKPGQSPQLLIYKVSNRFSGVPDRFSGSGSGTDFTLKISRVEAEDVGVYFCSQSIHVPYTFGGGTKVEIKR
notes: also called humanized GPC3 antibody Hu 52H5D3B8-8
With B1 the EC50 [1] was 418 pM, the “internalization on HepG2 cells (pHAb dye-labelled anti-hIgG secondary antibody, 48 h): EC50” value (from here on “internalization on HepG2 cells … EC50”) [2] was 0.78 µg/mL and the “internalization on HepG2 cells (pHAb dye-labelled anti-hIgG secondary antibody, 48 h): Top” value (from here on “internalization on HepG2 cells … Top”) [2] was 62400. For the same binder, the EC50 [3] was 0.0743 µg/mL, the “Percentage reduction of GPC3 on cell surface (%), Huh7 cells, 2 h at 37°C against ice, FACS” value [4] was 65.3% and the Top [5] was 75000. The EC50 [6] was 411 pM and the EC50 [7] was 351 pM.

B2: Y035 antibody (CARSGEN Therapeutics), humanized (antibody, V domains shown)
VH: EVQLVQSGAEVKKPGASVKVSCKASGYTHSDYEMHWVRQAPGQGLEWMGAIHPGSGDTAYNQRFKGRVTITADKSTSTAYMELSSLRSEDTAVYYCARFYSYAYWGQGTLVTVSA
VL: DIVMTQTPLSLPVTPGEPASISCRSSQSLVHSNGNTYLQWYLQKPGQSPQLLIYKVSNRFSGVPDRFSGSGSGTDFTLKISRVEAEDVGVYYCSQSIYVPYTFGQGTKLEIKR
B2 was tested, and the EC50 [1] was 1180 pM, the “internalization on HepG2 cells … EC50” value [2] was 1.08 µg/mL and the “internalization on HepG2 cells … Top” value [2] was 52000. It also gave an EC50 [6] of 1460 pM and an EC50 [7] of 1250 pM.

B3: Hu 52H5D3B8-7/8 CDRs with Y035 FRs (antibody, V domains shown)
VH: EVQLVQSGAEVKKPGASVKVSCKASGYTHSDYEMHWVRQAPGQGLEWMGAIHPGSGGTAYNQKFKGRVTITADKSTSTAYMELSSLRSEDTAVYYCARFYSYAYWGQGTLVTVSA
VL: DIVMTQTPLSLPVTPGEPASISCRSSQSLVHSNGNTYLQWYLQKPGQSPQLLIYKVSNRFSGVPDRFSGSGSGTDFTLKISRVEAEDVGVYYCSQSIHVPYTFGQGTKLEIKR
With B3 the EC50 [1] was 782 pM, the “internalization on HepG2 cells … EC50” value [2] was 1.14 µg/mL and the “internalization on HepG2 cells … Top” value [2] was 59200. The EC50 [6] was 763 pM and the EC50 [7] was 769 pM.

B4: Hu 52H5D3B8-8-L4-D4 (antibody, human IgG1, kappa, V domains shown)
VH: EVQLVQSGAEVKKPGASVKVSCKASGYTFTDYEMHWVRQAPGQGLEWMGAIHPGSGGTAYNQKFKGRVTMTADKSISTAYMELSRLRSDDTAVYYCTRFYSYAYWGQGTLVTVSS
VL: DVVMTQTPLSLSVTPGQPASISCRSSQSLVHSNGNTYLQWYLQKPGQSPQLLIYKVSNRFSGVPDRFSGSGSGTDFTLKISRVEAEDVGVYFCSQSIHVPYTFGGGTKVEIKR
modifications: MC-MMAF (L4-D4) on cysteine thiols freed by TCEP reduction of disulfide bonds; positions not given
notes: Constant regions as for Hu 52H5D3B8-8; also called Hu 52H5D3B8-8 ADC; Anti-GPC3-L4-D4
B4 was tested, and the EC50 [3] was 0.0693 µg/mL, the “Percentage reduction of GPC3 on cell surface (%), Huh7 cells, 2 h at 37°C against ice, FACS” value [4] was 63.4% and the Top [5] was 72900.

B5: Hu 52H5D3B8-8-L3-D3 (antibody, human IgG1, kappa, V domains shown)
VH: EVQLVQSGAEVKKPGASVKVSCKASGYTFTDYEMHWVRQAPGQGLEWMGAIHPGSGGTAYNQKFKGRVTMTADKSISTAYMELSRLRSDDTAVYYCTRFYSYAYWGQGTLVTVSS
VL: DVVMTQTPLSLSVTPGQPASISCRSSQSLVHSNGNTYLQWYLQKPGQSPQLLIYKVSNRFSGVPDRFSGSGSGTDFTLKISRVEAEDVGVYFCSQSIHVPYTFGGGTKVEIKR
modifications: MA-PEG4-VC-PAB-DMEA-Duocarmycin SA (L3-D3) on cysteine thiols freed by TCEP reduction of disulfide bonds; positions not given
With B5 the “EC50 value of cytotoxicity, Huh7 cells (96 h, PrestoBlue)” value [8] was 0.0274 µg/mL and the “Percentage reduction of GPC3 on cell surface (%), Huh7 cells, 2 h at 37°C against ice, FACS” value [4] was 65%.

B6: Hu 52H5D3B8-7-L1-D1 (antibody, human IgG1, kappa, V domains shown)
VH: EVQLVQSGAEVKKPGASVKVSCKASGYTFTDYEMHWVRQAPGQGLEWMGAIHPGSGGTAYNQKFKGRVTMTADKSISTAYMELSRLRSDDTAVYYCTRFYSYAYWGQGTLVTVSS
VL: DVVMTQTPLSLSVTPGQPASISCRSSQSLVHSNGNTYLQWYLQKPGQSPQLLIYKVSNRFSGVPDRFSGSGSGTDFTLKISRVEAEDVGVYYCSQSIHVPYTFGGGTKVEIKR
modifications: MC-vc-PAB-MMAE (L1-D1) on cysteine thiols freed by TCEP reduction of disulfide bonds; positions not given
B6 was tested, and the “Percentage reduction of GPC3 on cell surface (%), Huh7 cells, 2 h at 37°C against ice, FACS” value [4] was 70.8%.

B7: Hu 52H5D3B8-7-L4-D4 (antibody, human IgG1, kappa, V domains shown)
VH: EVQLVQSGAEVKKPGASVKVSCKASGYTFTDYEMHWVRQAPGQGLEWMGAIHPGSGGTAYNQKFKGRVTMTADKSISTAYMELSRLRSDDTAVYYCTRFYSYAYWGQGTLVTVSS
VL: DVVMTQTPLSLSVTPGQPASISCRSSQSLVHSNGNTYLQWYLQKPGQSPQLLIYKVSNRFSGVPDRFSGSGSGTDFTLKISRVEAEDVGVYYCSQSIHVPYTFGGGTKVEIKR
modifications: MC-MMAF (L4-D4) on cysteine thiols freed by TCEP reduction of disulfide bonds; positions not given
For B7, the “EC50 value of cytotoxicity, Huh7 cells (96 h, PrestoBlue)” value [8] was 0.00455 µg/mL.
